Experimental data published in the RNAGym collection of RNA variant scans (doi:10.1073/pnas.2313332121).

B1: TPR t1 (parent)
chain: GACCAAUCUGCCCUCAGAGCUCGAGAACAUCUUCGGAUGCAGAGGAGGCAGGCUUCGGUGGCGCGAUAGCGCCAACGUCCUCAACCUCCAAUGCAUCCCACCACAUGAUGAUGCCUGAAGAGCCUUGGUUUUUUG

Variants of: B1
Test: polymerase ribozyme fitness, log enrichment relative to wild type (log ratio); higher = more active; in vitro selection for triplet polymerase activity
How it was run: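 Only genotypes with ≥10 input reads and ≥1 read per output were kept after Illumina sequencing of input and output libraries. These libraries were PCR-built, transcribed mutants of each subunit of a heterodimeric triplet polymerase ribozyme, each put through one triplicate in vitro selection round with frozen incubation at −7 °C, gel excision of extended constructs, streptavidin-bead capture and RT-PCR. Fitness is a logarithmic ratio of genotype enrichment to wild-type enrichment, from inverse-variance-weighted replicate averages, with the logarithm in base 2.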

Going from C8U G36C G45U C64U C101A to C8U C40U A43U G77C, the “polymerase ribozyme fitness (log ratio)” value falls from -1.02 to -1.32.

Compared with C8U G44A G69C C89U A118U C124G G127C, U9A C56A G61C G77U G117U is lower in “polymerase ribozyme fitness (log ratio)” value: 0.163 for the first, -2.13 for the second.

Compared with C8U U21A A50C C53G G60A C88U U125C, U9A C13G G61U C123G is higher in “polymerase ribozyme fitness (log ratio)” value: -5.83 for the first, 1.99 for the second.

First: U9A G48C C86A C101A C114U C124U
Second: C8U C72A C76A
The “polymerase ribozyme fitness (log ratio)” value of the first is lower: -2.84 for the first, -1.75 for the second.

Going from C8U G63U A90U G113C to C8U C15G A16U C70U A118C G120A C124U, the “polymerase ribozyme fitness (log ratio)” value rises from -3.6 to -2.69.

First: U9A C12U G120U G128C
Second: U9A G48U C64U C72A
The “polymerase ribozyme fitness (log ratio)” value of the first is higher: 0.498 for the first, 0.0767 for the second.

U9A G93A C115U and C8U C11U G93U are within 0.2 log units of each other in “polymerase ribozyme fitness (log ratio)” value: -1.19 for the first, -1.31 for the second.

First: U9A G36A A119G
Second: U9A C11G C15G A91C G93A
The “polymerase ribozyme fitness (log ratio)” value of the first is higher: 0.68 for the first, -3.49 for the second.

Going from C8U C62A C114G U126A to C8U C40U G47A, the “polymerase ribozyme fitness (log ratio)” value rises from -3.89 to -1.72.

Going from C8U G44A G60U A121C G122U to U9A G44U, the “polymerase ribozyme fitness (log ratio)” value rises from -1.02 to -0.143.

Compared with C8U G63U A90G C115A, U9A A43U A50C is lower in “polymerase ribozyme fitness (log ratio)” value: -0.076 for the first, -1.66 for the second.

Compared with C8U G23A, C8U C86A G113C U130G is higher in “polymerase ribozyme fitness (log ratio)” value: -4.81 for the first, -2.85 for the second.

First: U9A G69C G113C C115U
Second: U9A A16G C28U U54G C89G C123G U131G
The “polymerase ribozyme fitness (log ratio)” value of the first is lower: -4.52 for the first, -3.93 for the second.

Compared with U9A G61A A100U, C8U G48U G71U A74U C104A G117A C124U is lower in “polymerase ribozyme fitness (log ratio)” value: 0.389 for the first, -6.05 for the second.

Compared with C8U C53A, U9A C62A C88U U92A is lower in “polymerase ribozyme fitness (log ratio)” value: 0.141 for the first, -4.26 for the second.

First: U9A C13A A16U C34G G48C G69U C80U
Second: U9A A105C G122A
The “polymerase ribozyme fitness (log ratio)” value of the first is lower: -4.42 for the first, -1.54 for the second.

Compared with U9A A43U C76A C85G G120A U130C, C8U C28A C72A A83C G110A is higher in “polymerase ribozyme fitness (log ratio)” value: -1.48 for the first, 1.02 for the second.

Going from U9A A118G to C8U G71A C98U G117U U130C, the “polymerase ribozyme fitness (log ratio)” value falls from 0.108 to -4.47.

Going from C8U C13A C20A U59A G113A C123G to C8U G93A C94U A118U, the “polymerase ribozyme fitness (log ratio)” value rises from -1.9 to -0.514.

Compared with C8U G19C G44U C56A C89G, C8U C12A C40A G61U A66G is higher in “polymerase ribozyme fitness (log ratio)” value: -2.64 for the first, -1.69 for the second.

C8U C49U G61A and C8U G47A U59A A74U C124A are within 0.2 log units of each other in “polymerase ribozyme fitness (log ratio)” value: 0.346 for the first, 0.355 for the second.

First: C8U G61C U116A
Second: C8U G93A
The “polymerase ribozyme fitness (log ratio)” value of the first is lower: -3.22 for the first, 0.108 for the second.

Going from C8U C15U C53A to U9A C88U U92A, the “polymerase ribozyme fitness (log ratio)” value falls from -0.442 to -2.44.

U9A C13U and U9A C13A are within 0.2 log units of each other in “polymerase ribozyme fitness (log ratio)” value: 0.446 for the first, 0.483 for the second.

Going from C8U G77A A84C A91C C98U to U9A C13U G25A A29G C53A C114G, the “polymerase ribozyme fitness (log ratio)” value falls from -2.47 to -6.86.

First: U9A C12U G61C
Second: C8U C13A C20A G113A C123G
The “polymerase ribozyme fitness (log ratio)” value of the first is lower: -1.89 for the first, -1.33 for the second.

Compared with C8U G117A, C8U G117C is lower in “polymerase ribozyme fitness (log ratio)” value: 0.294 for the first, -3.02 for the second.

Going from C8U G36A to C8U G110A, the “polymerase ribozyme fitness (log ratio)” value rises from -0.0427 to 0.177.

Going from U9A C98G to U9A C98A C104U, the “polymerase ribozyme fitness (log ratio)” value rises from -5.74 to -3.44.

First: U9A A27G C72U C114U
Second: U9A C73U C123G U134C
The “polymerase ribozyme fitness (log ratio)” value of the first is lower: -1.39 for the first, 2.44 for the second.

Going from C8U G45C G71A C85A to U9A G42A U129A, the “polymerase ribozyme fitness (log ratio)” value rises from -3.29 to -2.88.

C8U C15U G57U C82U U112A A118G and U9A C53A C86U are within 0.2 log units of each other in “polymerase ribozyme fitness (log ratio)” value: 0.233 for the first, 0.27 for the second.

Compared with U9A C12U A37G, C8U G39U C49G G63C U78A G128A is lower in “polymerase ribozyme fitness (log ratio)” value: -0.0422 for the first, -4.09 for the second.

Going from C8U C70A C73A C97U to U9A G17U A74C C82A U87C, the “polymerase ribozyme fitness (log ratio)” value rises from -3.27 to -0.851.

Going from C8U C15G A37U to C8U C62G, the “polymerase ribozyme fitness (log ratio)” value rises from -1.75 to -0.903.

First: U9A G47A U96G
Second: C8U G10A G42A G45A C53U C85A
The “polymerase ribozyme fitness (log ratio)” value of the first is higher: -0.976 for the first, -4.02 for the second.

Compared with C8U C12A C72U G117C, U9A C12A C88U G127A is lower in “polymerase ribozyme fitness (log ratio)” value: -1.86 for the first, -2.52 for the second.

First: U9A C40A G61U G93C C94G C124U
Second: C8U G36C G63U
The “polymerase ribozyme fitness (log ratio)” value of the first is higher: -0.833 for the first, -1.95 for the second.

Compared with C8U C13U G39A C80U C102A, U9A A50U C62G is higher in “polymerase ribozyme fitness (log ratio)” value: -2.98 for the first, -2.77 for the second.

First: C8U C22G G57C C89A A95G A111U A121U
Second: C8U C40G G42U C49A U130A
The “polymerase ribozyme fitness (log ratio)” value of the first is lower: -3.38 for the first, -2.72 for the second.

Compared with U9A A46G C53G C72U C82A G113U, U9A G19C C40G A43U G60U is lower in “polymerase ribozyme fitness (log ratio)” value: -1.9 for the first, -3.06 for the second.

In the case of C8U C70U C79G C94G, the “polymerase ribozyme fitness (log ratio)” value is reported as -3.8.
